Results from patent US20260028400A1 (AIMED BIO, published 2026).

B1: P015006 scFv (scFv, V domains shown)
VH: EVQLLESGGGLVQPGGSLRLSCAASGFTFSNYSMSWVRQAPGKGLEWVSAISHGSGSIYYADSVKGRFTISRDNSKNTLYLQMNSLRAEDTAVYYCAKPISAWSHIRMSYAYGMDVWGQGTLVTVSS
VL: QSVLTQPPSASGTPGQRVTISCTGSSSNIGSNYVSWYRQLPGTAPKLLIYSDSNRPSGVPDRFSGSKSGTSASLAISGLRSEDEADYYCATWDASLSAYVFGGGTKLTVL
notes: HA-tagged scFv
B2: P015009 scFv (scFv, V domains shown)
VH: EVQLLESGGGLVQPGGSLRLSCAASGFTFSNYSMSWVRQAPGKGLEWVSGIYSGNSNTYYADSVKGRFTISRDNSKNTLYLQMNSLRAEDTAVYYCAKDSRATHHRWHYYDNAMDVWGQGTLVTVSS
VL: QSVLTQPPSASGTPGQRVTISCTGSSSNIGSNYVSWYRQLPGTAPKLLIYSDSNRPSGVPDRFSGSKSGTSASLAISGLRSEDEADYYCGTWDSSLSGYVFGGGTKLTVL
notes: HA-tagged scFv
B3: P015013 scFv (scFv, V domains shown)
VH: EVQLLESGGGLVQPGGSLRLSCAASGFTFSSYDMSWVRQVPGKGLEWVSWISHGGGSIYYADSVKGRFTISRDNSKNTLYLQMNSLRAEDTAVYYCARDLSNRLFTGFDYWGQGTLVAVSS
VL: QSVLTQPPSASGTPGQRVTISCSGSSSNIGSNSVYWYQQLPGTAPKPLIYSDSHRPSGVPDRFSGSKSGTSASLAISGLRSEDEADYYCGTWDYSLNAYVFGGGTKLTVL
notes: HA-tagged scFv
B4: P015001 scFv (scFv, V domains shown)
VH: EVQLLESGGGLAQPGGSLRLSCAASGFTFSNYDMSWVRQAPGKGPEWVSGIYSGNSNTYYADSVKGRFTISRDNSKNTLYLQMNSLRAEDTAVYYCARDLQYTEWAGFDYWGQGTLVTVSS
VL: QSVLTQPPSASGTPGQRVTISCSGSSSNIGSNDVTWYQQLPGTAPKLLIYDDSKRPSGVPDRFSGSKSGTSASLAISGLRSEDEADYYCAAWDDSLSGYVFGGGTKLTVL
notes: scFv of a phage-library clone from a bacterial extract, with HA tag
B5: P015011 scFv (scFv, V domains shown)
VH: EVQLLESGGGLVQPGGSLRLSCAASGFTFSNYAMSWVRQAPGKGLEWVSGISPDGGSIYYADSVKGRFTISRDNSKNTLYLQMNSLRAEDTAVYYCAKAARLSPSMNYSYAYGMDVWGQGTLVTVSS
VL: QSVLTQPPSASGTPGQRVTISCTGSSSNIGNNYVSWYQQLPGTAPKLLIYSDSHRPSGVPDRFSGSKSGTSASLAISGLRSEDEADYYCGTWDYSLNGYVFGGGTKLTVL
notes: HA-tagged scFv
B6: P015010 scFv (scFv, V domains shown)
VH: EVQLLESGGGLVQPGGSLRLSCAASGFTFSNYAMSWVRQAPGKGLEWVSGISPNGSSIYYADSVKGRFTISRDNSKNTLYLQMNSLRAEDTAVYYCAKAARLSPSRNYSYAYGMDVWGQGTLVTVSS
VL: QSVLTQPPSASGTPGQRVTISCTGSSSNIGNNNVTWYQQLPGTAPKLLIYSDSQRPSGVPDRFSGSKSGTSASLAISGLRSEDEADYYCGTWDYSLNGYVFGGGTKLTVL
notes: HA-tagged scFv
B7: P015038 scFv (scFv, V domains shown)
VH: EVQLQESGGGLVLPGGSLRLSCAASGFTFNNYAMSWVRQAPGKGLEWVSGISPNGSSIYYADSVKGRFTISRDNSKNTLYLQMNSLRAEDTAVYYCAKAARLSPSRNYSYAYGMDVWGQGTLVTVSS
VL: QSVLTQPPSASGTPGQRVTISCTGSSSNIGNNNVTWYQQLPGTAPKLLIYSDSQRPSGVPDRFSGSKSGTSASLAISGLRSEDEADYYCGTWDYSLNGYVFGGGTKLTVL
notes: HA-tagged scFv
B8: P015040 scFv (scFv, V domains shown)
VH: EVQLLESGGGLVQPGGSLRLSCAASGFTFSNYAMSWVRQAPGKGLEWVSGISPNGSSIYYADSVKGRFTISRDNSKNTLYLQMNSLRAEDTAVYYCAKAARLSPSRNYSYAYGMDVWGQGTLVTVSS
VL: QSVLTQPPSASGTPGQRVTISCTGSSSNIGNNNVTWYQQLPGTAPKLLIYSDSQRPSGVPDRFSGSKSGTSASLAISGLRSKDEADYYCGTWDYSLNGYVFGGGTKLTVL
notes: HA-tagged scFv
B9: P015041 scFv (scFv, V domains shown)
VH: EVQLLESGGGLVQPGGSLRLSCAASGFTFSNYAMSWVRQAPGKGLEWVSGISPNGSSIYYADSVKGRFTISRDNSKNTLYLQMNSLRAEDTAVYYCAKAARLSPSRNYSYAYGMDVWGQGTLVTVSS
VL: QSVLTQPPSASGTPGQRVTISCTGSSSNIGNNNVTWYQQLPGTAPKLLIYSDSQRPSGVPDRFSGSKSGTSASLAISGLRSEDEADYYCGTWEYSLNGYVFGGGTKLTVL
notes: HA-tagged scFv
B10: P015002 scFv (scFv, V domains shown)
VH: EVQLLESGGGLVQPGGSLRLSCAASGFTFSDYSMSWVRQAPGKGLEWVSGISHNGGSTYYADSVKGRFTISRDNSKNTLYLQMSSLRAEDTAVYYCARDVSRWSKTRWSYDNAMDVWGQGTLVTVSS
VL: QSVLTQPPSASGTPGQRVTISCTGSSSNIGSNYVSWYRQLPGTAPKLLIYSDSNRPSGVPDRFSGSKSGTSASLAISGLRSEDEADYYCATWDASLSAYVFGGGTKLTVL
notes: HA-tagged scFv
B11: P015005 scFv (scFv, V domains shown)
VH: EVQLLESGGGLVQPGGSLRLSCAASGFTFSDYSMSWVRQAPGKGLEWVSGISHNGGSTYYADSVKGRFTISRDNSKNTLYLQMSSLRAEDTAVYYCARDVSRWSKTRWSYDNAMDVWGQGTLVTVSS
VL: QSVLTQPPSASGTPGQRVTISCSGSSSNIGSNYVNWYQQLPGTAPKLLIYSDSHRPSGVPDRFSGSKSGTSASLAISGLRSEDEADYYCGSWDSSLNAYVLGGGTKLTVL
notes: HA-tagged scFv
B12: P015043 scFv (scFv, V domains shown)
VH: EVQLLESGGGLVQPGGSLRLSCAASGFTFSNYDMSWVRQAPGKGLEWVSWISPGGSSIYYADSVKGRFTISRDNSKNTLYLQMNSLRAEDTAVYYCAKTLTRFDYWGQGTLVTVSS
VL: QSVLTQPPSASGTPGQRVTISCTGSSSNIGNNNVSWYQQLPGTAPKLLIYYDSHRPSGVPDRFSGSKSGTSASLAISGLRSEDEADYYCGTWDSSLSGYVFGGGTKLTVL
notes: HA-tagged scFv
B13: P015012 scFv (scFv, V domains shown)
VH: EVQLLESGGGLVQPGGSLRLSCAASGFTFSGYSMSWVRQAPGKGLEWVSGISYGGSSISYADSVKGRFTISRDNSKNTLYLQMNSLRAEDTAVYYCAKPVRRWARFRLSYDDAMDVWGQGTLVTVSS
VL: QSVLTQPPSASGTPGQRVTISCSGSSSNIGNNAVNWYQQLPGTAPKLLIYANSHRPSGVPDRFSGSKSGTSASLAISGLRSEDEADYYCGTWDSSLSGYVFGGGTKLTVL
notes: HA-tagged scFv
B14: P015003 scFv (scFv, V domains shown)
VH: EVQLLESGGGLVQPGGSLRLSCAASGFTFSSYAMSWVRQAPGKGLEWVSGISPGGSSKYYADSVKGRFTISRDNSKNTLYLQMNSLRAEDTAVYYCARGPHRAIDTAFDYWGQGTLVTVSS
VL: QSVLTQPPSASGTPGQRVTISCTGSSSNIGSNYVSWYRQLPGTAPKLLIYSDSNRPSGVPDRFSGSKSGTSASLAISGLRSEDEADYYCATWDASLSAYVFGGGTKLTVL
notes: HA-tagged scFv
B15: P015021 scFv (scFv, V domains shown)
VH: EVQLLESGGGLVQPGGSLRLSCAASGFTFSSYAMSWVRQAPGKGLEWVSWISPGGGNIYYADSVKGRFTISRDNSKNTLYLQMNSLRAEDTAVYYCARSQSGFDYWGQGTLVTVSS
VL: QSVLTQPPSASGTPGQRVTISCSGSSSNIGNNSVTWYQQLPGTAPKLLIYYDSHRPSGVPDRFSGSKSGTSASLAISGLRSEDEADYYCGAWDSSLNGYVFGGGTKLTVL
notes: HA-tagged scFv

Biological target: T1, FZD (human, UniProt Q01973)
T1 construct: frizzled domain, His tag; also called Frizzled domain; human ROR1-frizzled domain
T1 sequence (Q01973 165-305 limits assumed): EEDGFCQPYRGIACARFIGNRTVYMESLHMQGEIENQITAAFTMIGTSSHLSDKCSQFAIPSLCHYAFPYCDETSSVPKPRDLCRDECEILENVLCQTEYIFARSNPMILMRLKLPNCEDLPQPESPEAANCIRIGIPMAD
Experiment: scFv ELISA on coated domain, anti-HA-HRP, OD450
Description: (§1) Thereafter, the plate was treated with each scFv and reacted for 2 hours, followed by washing four times using PBST and distilled water. After binding at room temperature for 1 hour using an HRP-conjugated anti-HA antibody (Roche, 12013819001, Anti-HA-Peroxidase, High Affinity) capable of binding to the HA tag, washing was performed six times using PBST and distilled water. After color development by adding TMB substrate solution (Thermo Scientific, 34029, 1-Step™ Ultra TMB-ELISA Substrate Solution), the color reaction was stopped with stop solution (Invitrogen, SS04, ELISA Stop Solution), and the absorbance was measured at OD 450 nm. The scFv binding to each domain was analyzed through ELISA.

Q: Does B1 bind?
A: binds

Q: Does B2 bind?
A: binds

Q: Does B3 bind?
A: binds

Q: Does B4 bind?
A: no binding

Q: Does B5 bind?
A: no binding

Biological target: T2, Ig-like (human, UniProt Q01973)
T2 construct: Ig-like domain, His tag; also called Ig-like domain; human ROR1-immunoglobulin domain
T2 sequence (Q01973 39-151 limits assumed): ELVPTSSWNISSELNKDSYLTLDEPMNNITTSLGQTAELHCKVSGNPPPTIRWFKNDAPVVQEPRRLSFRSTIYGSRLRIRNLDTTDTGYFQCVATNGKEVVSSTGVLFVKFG
Experiment: scFv ELISA on coated domain, anti-HA-HRP, OD450
Description: as §1

Q: Does B1 bind?
A: no binding

Q: Does B2 bind?
A: no binding

Q: Does B6 bind?
A: binds

Q: Does B7 bind?
A: binds

Q: Does B8 bind?
A: binds

Q: Does B9 bind?
A: binds

Q: Does B3 bind?
A: no binding

Q: Does B10 bind?
A: no binding

Q: Does B11 bind?
A: no binding

Q: Does B12 bind?
A: no binding

Q: Does B13 bind?
A: no binding

Q: Does B14 bind?
A: no binding

Q: Does B15 bind?
A: no binding
